Results taken from paper PMC10611767, “TudS desulfidases recycle 4-thiouridine-5’-monophosphate at a catalytic [4Fe-4S] cluster” (Communications Biology, 2023).

Key:
Experiment in all cases: purified protein
Conditions in all cases: anaerobic, normalized to 4 Fe per protein
[1] = test system: O=c1[nH]c(=S)ccn1[C@@H]1O[C@H](COP(=O)(O)O)[C@@H](O)[C@H]1O
[2] = test system: O=c1[nH]ccc(=S)[nH]1
[3] = test system: O=c1[nH]c(=S)ccn1[C@@H]1O[C@H](COP(=O)(O)OP(=O)(O)OP(=O)(O)O)[C@@H](O)[C@H]1O
[4] = test system: O=c1[nH]c(=S)ccn1[C@@H]1O[C@H](CO)[C@@H](O)[C@H]1O
[5] = 100 mM MOPS/KOH pH 7.3, anaerobically purified
[6] = 100 mM MOPS/KOH pH 7.3, 30 °C, anaerobically purified

## TudS_P (Pseudomonas sp. MIL19)
[1]; [5]
  Km: 20 ± 7 µM
  Vmax: 447 µmol/min/mg
  kcat: 138 ± 16 s⁻¹
  kcat/Km: 7.63e+06 M⁻¹ s⁻¹
[2]; [5]
  Km: 1490 ± 270 µM
  Vmax: 15.9 µmol/min/mg
  kcat: 4.93 ± 0.43 s⁻¹
  kcat/Km: 3270 M⁻¹ s⁻¹
[3]; [5]
  Km: 117 ± 26 µM
  Vmax: 168 µmol/min/mg
  kcat: 52.3 ± 2.4 s⁻¹
  kcat/Km: 448000 M⁻¹ s⁻¹
[4]; [5]
  Km: 200 ± 90 µM
  Vmax: 64.3 µmol/min/mg
  kcat: 19.9 ± 4.7 s⁻¹
  kcat/Km: 103000 M⁻¹ s⁻¹

## TudS_A (uncultured bacterium)
[1]; [6]
  Km: 38 ± 13 µM
  Vmax: 1000 µmol/min/mg
  kcat: 293 ± 44 s⁻¹
  kcat/Km: 7.77e+06 M⁻¹ s⁻¹
[2]; [6]
  Km: 240 ± 30 µM
  Vmax: 2.4 µmol/min/mg
  kcat: 0.7 ± 0.05 s⁻¹
  kcat/Km: 2900 M⁻¹ s⁻¹
[3]; [6]
  Km: 100 ± 23 µM
  Vmax: 234 µmol/min/mg
  kcat: 68.6 ± 3.4 s⁻¹
  kcat/Km: 685000 M⁻¹ s⁻¹
[4]; [6]
  Km: 3100 ± 600 µM
  Vmax: 30.1 µmol/min/mg
  kcat: 8.8 ± 0.9 s⁻¹
  kcat/Km: 2880 M⁻¹ s⁻¹
